Series [1] relates to U87MG human glioblastoma cells. Put plainly: Potentiation of R2FasL by chemotherapeutic agents, resazurin cell viability assay. The series is classed as cell-based. Particulars: 72 hours drug (Bis VIII 1 μM, camptothecin 20 nM, etoposide 5 μM), then R2FasL 10 μL/well for 40 hours. (The colour change of resazurin is a common sign of viable cells or microbes.)
Series [2] concerns U87MG human glioblastoma cells. Put plainly: Potentiation of R2FasL by chemotherapeutic agents, LDH release assay. Particulars: 72 hours drug (Bis VIII 1 μM, camptothecin 20 nM, etoposide 5 μM), then R2FasL 10 μL/well for 40 hours. Here is the method:
To determine if the activity of R2FasL can be potentiated by chemotherapeutic agents, the following experiments were performed. U87MG human glioblastoma cells were plated in 96-well plates in 100 μL of complete medium with 10% fetal calf serum at 25,000 cells/well. Forty-eight hours later cells were treated with either bisindolylmaleimide VIII (Bis VIII, final concentration 1 μM), camptothecin (final concentration 20 nM), etoposide (final concentration 5 μM), or DMSO vehicle (1 μL/well). Bis VIII, camptothecin, and etoposide (all from Biomol) were dissolved in DMSO and added at 1 μL/well. After 72 hours of drug exposure, cells were treated with FLAG antibody affinity-purified R2FasL solution (10 μL/well), and incubated for an additional 40 hours. Cell viability and cytotoxicity were assayed using the resazurin assay and the LDG release assay, respectively, as described above.

Series [3] has as its system U87MG human glioblastoma cells. Put plainly: LDH release cytotoxicity assay in glioblastoma cells. The series is classed as cell-based. Particulars: FLAG-purified R2FasL solution 0-10 μL/well, 24 hours. The method, then: R2FasL solution (0, 0.01, 0.1, 1, or 10 μL), purified by FLAG epitope tag affinity chromatography, was then added to each well (FIG. 17A). In addition, each well received 300 ng of neutralizing anti-VEGF antibody, neutralizing anti-FasL antibody, or control goat Ig (all from R&S Systems). Twenty-four hours later the cells were assayed for cytotoxicity using the LDH release assay (Roche), in which 10 μL of cell supernatant is mixed with 100 μL LDH reaction mixture in a total reaction volume of 200 μL. Cytotoxicity was assayed spectrophotometrically by measuring absorbance at 492 nm.
A general note: Release of lactate dehydrogenase indicates damage to the cell membrane.

The subject of series [4] is U87MG human glioblastoma cells. Put plainly: Cell death in glioblastoma cells, Trypan blue cell counting. The series is classed as cell-based. The note with it: Cos7 conditioned medium with R2FasL, 36 hours. Here is the method: To investigate if R2FasL induces apoptosis in human glioblastoma the following experiment was performed. […] Twenty-four hours later conditioned medium from Cos7 cells transfected with either pFLAG/R2FasL or empty pFLAG vector was added (FIG. 17B). The concentration of R2FasL was determined separately by quantitative immunoblotting using commercially produced rhsFasL as standard (R&S Systems). After 36 more hours, cells were trypsinized, stained with Trypan blue, and counted on a hemocytometer. Data in FIG. 17B are shown as mean±SEM.

The test system of series [5] is DU145 human prostate cancer cells. Put plainly: LDH release cytotoxicity assay in prostate cancer cells. The series is classed as cell-based. Particulars: Cos7 conditioned medium with R2FasL, 34 hours. Here is the method: DU145 human prostate cancer cells were plated in 24-well plates in 500 μL of complete medium with 10% fetal calf serum and allowed to grow for 54 hours without change of medium. Conditioned medium from Cos7 cells transfected with either pFLAG/R2FasL or empty pFLAG vector was added in the indicated volumes. After 34 more hours cytotoxicity was assayed using the LDH release assay as described above.

Series [6] deals with U373 human glioblastoma cells. Put plainly: LDH release cytotoxicity assay in Fas-resistant glioblastoma cells. The series is classed as cell-based. The note with it: Cos7 conditioned medium with R2FasL, 36 hours; cells resistant to Fas receptor-mediated killing. The method, then: To investigate the specificity of the R2FasL activity on U87MG glioblastoma cells, the cytotoxic effect of R2FasL on the U373 glioblastoma cell line, was analyzed. […] Conditioned medium from Cos7 cells transfected with pFLAG/R2FasL vector was added in the indicated volumes. After 36 more hours cytotoxicity was assayed using the LDH release assay as described herein (FIG. 17D).

In series [7] the test system is Jurkat E6.1 human T cells. Put plainly: Jurkat cell viability, resazurin (AlamarBlue) assay. The note with it: 1 μL/well conditioned medium, rhVEGF-165 or rmVEGF-165 0.001-10 nM, 18 hours. The series is classed as cell-based. The method, then: Conditioned medium (0.001, 0.01, 0.1, 1, or 10 μL) from Cos7 cells transfected with pFLAG/R1[D2]FasL vector was added in the absence or presence of rhVEGF-165 (final concentration 2 nM). Twenty-two hours later cell viability was assayed using the resazurin assay (AlamarBlue reagent from BioSource). Conversion of AlamarBlue substrate to product by viable cells was determined by adding 20 μL of AlamarBlue to each well and measuring absorbance at 540 nm and […]. Calculation of % conversion of substrate to product was performed according to the manufacturer's protocol.
To investigate which growth factors activate R1[D2]FasL the following experiment was performed. […] All growth factors were used at a final concentration of 10 nM, and were from Peprotech or R&D Systems. Nineteen hours later cell viability was assayed using the resazurin assay as described above.
In a similar experiment, the concentration of the growth factors tested was varied. […] Conditioned medium from Cos7 cells transfected with either pFLAG/R2FasL vector or empty pFLAG vector was added (1 μL/well), in the absence or presence of rhVEGF-165 or rmVEGF-165 at the final concentrations of 0.001, 0.01, 0.1, 1, and 10 nM. Eighteen hours later cell viability was assayed using the resazurin assay as described herein.
To determine the ED50 for hVEGF-165 on R1[D2]FasL the following experiment was performed. […] Conditioned medium from Cos7 cells transfected with pFLAG/R1[D2]FasL vector was added (2 μL/well), in the absence or presence of rhVEGF-165 at 0, 0.01, 0.1, 1, 10, 100, 1,000, or 10,000 nM. Nineteen hours later cell viability was assayed using the resazurin assay as described above.
In a similar experiment the ED50 for hVEGF-165 on R2FasL was determined. […] Conditioned medium from Cos7 cells transfected with pFLAG/R2FasL vector was added in the volumes indicated, in the absence or presence of rhVEGF-165 at the final concentrations of […], 0.2 and 2 nM. Eighteen hours later cell viability was assayed using the resazurin assay. The ED50 for rhVEGF-165 was between 20 pM and 200 pM (FIG. 21B).

Series [8] has as its system Human umbilical vein endothelial cells (HUVEC). Put plainly: Macrovascular endothelial cell viability, resazurin assay. The series is classed as cell-based. Particulars: serum-starved, 10 μL/well conditioned medium, with 2 nM rhVEGF-165, 22 hours. The method, then:
R2FasL may be differentially active in tumor endothelial cells (microvascular) and less toxic to normal macrovascular endotherlial cells, such as arteries and veins. […] Twenty-four hours later serum starvation was begun (to sensitize cells to death signals) by withdrawing serum. After fifteen hours of serum starvation cells were treated Cos7 cell conditioned medium containing R2FasL (10 μL/well) in the absence or presence of rh VEGF-165 (final concentration 2 nM). After 22 hours of treatment with R2FasL±rhVEGF cell viability was assayed using the resazurin assay as described herein. No effect of R2FasL+VEGF was seen on these macrovascular endothelial cells (FIG. 20A).

The subject of series [9] is Bovine adrenal cortical endothelial cells. Put plainly: Microvascular endothelial cell cytotoxicity, LDH release assay. The series is classed as cell-based. The note with it: 2 μL/well conditioned medium, with 2 nM rhVEGF-165, 24 hours. Here is the method:
Twenty-two hours later conditioned medium from Cos7 cells transfected with either pFLAG/R2FasL or empty pFLAG vector was added (2 μL/well), in the absence or presence of rhVEGF-165 (final concentration 2 nM). Twenty-four hours later cytotoxicity was assayed using the LDH release assay as described above.

Take `CC[C@@]1(O)C(=O)OCc2c1cc1n(c2=O)Cc2cc3ccccc3nc2-1` [camptothecin]: the “potentiation of R2FasL apoptotic activity (cell viability)” value in [1] is “Potentiation of R2FasL apoptotic activity”. Besides, the “potentiation of R2FasL cytotoxic activity (LDH release)” value in [2] is recorded as “Potentiation of R2FasL cytotoxic activity”.

B1: R2FasL: FLAG epitope-tagged VEGFR2/FasL fusion protein expressed from pFLAG/R2FasL; apparently the FLAG-tagged form of FlkFasL (protein)
chain: AASVGLPGDFLHPPKLSTQKDILTILANTTLQITCRGQRDLDWLWPNAQRDSEERVLVTECGGGDSIFCKTLTIPRVVGNDTGAYKCSYRDVDIASTVYVYVRDYRSPFIASVSDQHGIVYITENKNKTVVIPCRGSISNLNVSLCARYPEKRFVPDGNRISWDSEIGFTLPSYMISYAGMVFCEAKINDETYQSIMYIVVVVGYRIYDVILSPPHEIELSAGEKLVLNCTARTELNVGLDFTWHSPPSKSHHKKIVNRDVKPFPGTVAKMFLSTLTIESVTKSDQGEYTCVASSGRMIKRNRTFVRVHTKPFIAFGSARGTSEKKELRKVAHLTGKSNSRSMPLEWEDTYGIVLLSGVKYKKGGLVINETGLYFVYSKVYFRGQSCNNLPLSHKVYMRNSKYPQDLVMMEGKMMSYCTTGQMWARSSYLGAVFNLTSADHLYVNVSELSLVNFEESQTFFGLYKL
modifications: left off: small tags and cut ends
notes: apparently the FLAG-tagged form of FlkFasL
Turning to B1, the “cytotoxicity (LDH release)” value in [3] is reported as “induces cytotoxicity”; in [5] it was “induces cytotoxicity”; in series [6], “does not induce cytotoxicity”. Further, the “cell death (cell count)” value in series [4] was “induces cell death”. The “activation by human and mouse VEGF-165 (cell viability)” value in series [7] is “human and mouse VEGF-165 similarly activate R2FasL”. Further, in series [8], the “effect of R2FasL+VEGF on cell viability” value is “No effect”. In series [9], the “cytotoxicity (LDH release) of R2FasL and VEGF” value is listed as “induce cytotoxicity”.

The values are drawn from patent publication US9056102B2, “VEGF-activated trail ligands” (The Regents of the University of California, priority 2005, dated 2015).
